Laboratory results from article PMC5511190.

Target: GST-LRRK2 WD40 G2385R (human) (UniProt Q5S007)
Assay: affinity purification with mass spectrometry; 5 µg GST fusion protein on glutathione-Sepharose incubated with adult mouse brain lysate or crude SV fraction (LP2) (1 mg protein) 2 h at 4 °C; washes 150 mM NaCl, 2 mM EDTA, 50 mM Tris-HCl, 0.2% Triton, pH 7.4; LC-MS/MS with label-free quantification, 4 samples per condition (GST-control, GST-WD40, GST-WD40-G2385R)

GST-LRRK2 WD40 G2385R (human), sequence (Q5S007 whole entry G2385R, the tested form may be a part): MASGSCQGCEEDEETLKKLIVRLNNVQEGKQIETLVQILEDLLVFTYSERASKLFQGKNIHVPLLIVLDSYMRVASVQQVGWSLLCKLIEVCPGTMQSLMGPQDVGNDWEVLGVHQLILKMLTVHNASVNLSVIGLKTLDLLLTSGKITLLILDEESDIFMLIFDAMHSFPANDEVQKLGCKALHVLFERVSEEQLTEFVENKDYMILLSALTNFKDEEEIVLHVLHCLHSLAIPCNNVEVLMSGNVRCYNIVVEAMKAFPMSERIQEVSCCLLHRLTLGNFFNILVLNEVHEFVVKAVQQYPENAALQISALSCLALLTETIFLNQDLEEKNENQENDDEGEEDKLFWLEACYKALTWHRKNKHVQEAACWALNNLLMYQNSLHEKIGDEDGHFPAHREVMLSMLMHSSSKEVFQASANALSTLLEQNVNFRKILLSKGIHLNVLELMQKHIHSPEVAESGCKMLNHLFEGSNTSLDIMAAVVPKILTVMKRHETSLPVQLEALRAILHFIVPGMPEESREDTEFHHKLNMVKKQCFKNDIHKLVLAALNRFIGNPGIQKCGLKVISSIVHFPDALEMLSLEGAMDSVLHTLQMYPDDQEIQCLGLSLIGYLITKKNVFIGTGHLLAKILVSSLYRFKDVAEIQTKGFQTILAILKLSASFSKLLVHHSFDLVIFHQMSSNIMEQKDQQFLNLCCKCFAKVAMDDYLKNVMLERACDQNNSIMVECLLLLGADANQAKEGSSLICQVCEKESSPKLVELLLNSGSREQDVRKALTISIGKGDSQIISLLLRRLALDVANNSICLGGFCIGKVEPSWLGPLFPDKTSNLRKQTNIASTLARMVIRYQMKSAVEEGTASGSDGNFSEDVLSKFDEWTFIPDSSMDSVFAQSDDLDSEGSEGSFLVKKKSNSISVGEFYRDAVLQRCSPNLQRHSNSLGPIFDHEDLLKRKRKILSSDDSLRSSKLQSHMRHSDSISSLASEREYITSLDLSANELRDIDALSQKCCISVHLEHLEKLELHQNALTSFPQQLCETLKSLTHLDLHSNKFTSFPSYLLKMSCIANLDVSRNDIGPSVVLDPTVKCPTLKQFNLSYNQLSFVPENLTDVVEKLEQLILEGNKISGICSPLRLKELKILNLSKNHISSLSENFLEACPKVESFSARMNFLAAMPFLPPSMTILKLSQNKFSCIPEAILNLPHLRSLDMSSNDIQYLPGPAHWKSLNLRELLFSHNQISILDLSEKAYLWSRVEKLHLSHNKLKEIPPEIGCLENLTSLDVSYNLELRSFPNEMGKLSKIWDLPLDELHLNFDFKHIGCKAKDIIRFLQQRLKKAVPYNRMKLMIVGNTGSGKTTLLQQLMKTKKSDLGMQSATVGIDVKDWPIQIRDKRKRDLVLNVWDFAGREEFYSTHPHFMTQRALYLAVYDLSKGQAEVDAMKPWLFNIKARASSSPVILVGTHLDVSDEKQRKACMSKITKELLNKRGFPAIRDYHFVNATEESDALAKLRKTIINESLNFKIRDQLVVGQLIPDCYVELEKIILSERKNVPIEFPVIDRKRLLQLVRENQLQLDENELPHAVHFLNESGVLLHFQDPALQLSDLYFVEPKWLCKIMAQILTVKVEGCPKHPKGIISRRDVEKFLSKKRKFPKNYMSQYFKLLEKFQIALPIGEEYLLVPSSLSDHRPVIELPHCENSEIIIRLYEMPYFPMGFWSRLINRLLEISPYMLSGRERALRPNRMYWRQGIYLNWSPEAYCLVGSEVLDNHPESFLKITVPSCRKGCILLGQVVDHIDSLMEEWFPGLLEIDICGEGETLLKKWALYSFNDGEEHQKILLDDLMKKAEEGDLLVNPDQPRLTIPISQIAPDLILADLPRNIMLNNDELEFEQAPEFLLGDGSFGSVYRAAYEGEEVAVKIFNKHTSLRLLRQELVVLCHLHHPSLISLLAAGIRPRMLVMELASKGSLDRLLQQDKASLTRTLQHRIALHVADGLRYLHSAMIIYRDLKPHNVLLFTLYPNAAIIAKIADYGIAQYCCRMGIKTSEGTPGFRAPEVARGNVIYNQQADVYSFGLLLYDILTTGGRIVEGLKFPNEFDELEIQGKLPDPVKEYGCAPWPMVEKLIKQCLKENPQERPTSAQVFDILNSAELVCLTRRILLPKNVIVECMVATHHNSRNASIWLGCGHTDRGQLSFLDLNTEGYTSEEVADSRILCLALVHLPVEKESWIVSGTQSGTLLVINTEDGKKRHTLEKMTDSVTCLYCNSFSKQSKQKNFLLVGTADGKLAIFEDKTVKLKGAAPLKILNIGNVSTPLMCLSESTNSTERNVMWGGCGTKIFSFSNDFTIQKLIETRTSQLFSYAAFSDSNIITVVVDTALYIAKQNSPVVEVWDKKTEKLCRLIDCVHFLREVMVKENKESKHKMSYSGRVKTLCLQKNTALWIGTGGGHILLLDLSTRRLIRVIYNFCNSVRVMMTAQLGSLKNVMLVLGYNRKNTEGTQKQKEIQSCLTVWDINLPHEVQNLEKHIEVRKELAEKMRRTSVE
14-3-3 protein epsilon, sequence (P62259 whole entry): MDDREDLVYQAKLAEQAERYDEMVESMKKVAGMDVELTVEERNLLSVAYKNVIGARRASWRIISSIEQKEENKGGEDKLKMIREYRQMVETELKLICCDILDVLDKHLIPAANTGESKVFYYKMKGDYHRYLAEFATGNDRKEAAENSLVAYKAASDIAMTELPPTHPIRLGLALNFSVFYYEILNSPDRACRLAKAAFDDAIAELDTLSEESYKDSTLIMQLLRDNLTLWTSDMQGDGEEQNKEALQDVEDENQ
Tubulin alpha-4A chain, sequence (P68368 whole entry): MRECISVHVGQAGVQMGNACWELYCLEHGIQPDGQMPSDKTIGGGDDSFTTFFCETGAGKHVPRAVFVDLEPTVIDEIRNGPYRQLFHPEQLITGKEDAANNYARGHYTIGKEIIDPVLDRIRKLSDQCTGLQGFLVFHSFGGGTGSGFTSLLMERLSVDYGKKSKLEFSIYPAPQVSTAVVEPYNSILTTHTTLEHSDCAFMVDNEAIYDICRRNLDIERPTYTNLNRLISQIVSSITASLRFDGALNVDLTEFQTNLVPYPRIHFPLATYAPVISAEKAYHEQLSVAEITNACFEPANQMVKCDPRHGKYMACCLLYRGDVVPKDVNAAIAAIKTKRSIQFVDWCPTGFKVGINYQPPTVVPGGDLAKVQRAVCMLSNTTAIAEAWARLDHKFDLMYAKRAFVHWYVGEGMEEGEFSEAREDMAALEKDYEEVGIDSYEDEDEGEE
Tubulin beta-4B chain, sequence (P68372 whole entry): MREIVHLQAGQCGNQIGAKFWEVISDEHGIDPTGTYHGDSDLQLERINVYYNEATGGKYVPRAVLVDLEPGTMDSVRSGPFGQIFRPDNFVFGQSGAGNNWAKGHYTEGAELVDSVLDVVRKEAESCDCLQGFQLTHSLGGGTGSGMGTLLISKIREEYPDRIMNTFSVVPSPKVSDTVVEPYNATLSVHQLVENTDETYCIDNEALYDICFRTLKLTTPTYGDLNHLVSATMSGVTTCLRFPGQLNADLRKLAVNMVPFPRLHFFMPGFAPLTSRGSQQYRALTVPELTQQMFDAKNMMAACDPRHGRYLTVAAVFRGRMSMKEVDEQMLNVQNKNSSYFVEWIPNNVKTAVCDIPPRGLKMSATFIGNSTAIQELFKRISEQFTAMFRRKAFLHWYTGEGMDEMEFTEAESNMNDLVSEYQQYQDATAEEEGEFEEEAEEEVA
Dihydropyrimidinase-related protein 1, sequence (P97427 whole entry): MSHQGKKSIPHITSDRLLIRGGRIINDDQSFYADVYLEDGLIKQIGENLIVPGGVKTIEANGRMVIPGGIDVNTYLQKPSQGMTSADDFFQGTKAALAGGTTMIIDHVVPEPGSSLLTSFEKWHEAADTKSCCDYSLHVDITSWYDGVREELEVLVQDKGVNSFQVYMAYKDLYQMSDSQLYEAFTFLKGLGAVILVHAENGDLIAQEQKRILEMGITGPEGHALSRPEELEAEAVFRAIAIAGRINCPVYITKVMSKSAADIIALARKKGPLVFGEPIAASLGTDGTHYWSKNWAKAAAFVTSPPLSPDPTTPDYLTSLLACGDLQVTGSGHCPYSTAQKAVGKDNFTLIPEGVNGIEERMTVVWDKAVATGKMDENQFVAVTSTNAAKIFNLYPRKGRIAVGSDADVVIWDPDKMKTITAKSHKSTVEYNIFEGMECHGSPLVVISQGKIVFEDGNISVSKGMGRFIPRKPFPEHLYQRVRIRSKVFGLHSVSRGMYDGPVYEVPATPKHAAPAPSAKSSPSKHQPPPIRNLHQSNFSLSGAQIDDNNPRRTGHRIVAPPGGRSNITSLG
Dihydropyrimidinase-related protein 4, sequence (O35098 whole entry): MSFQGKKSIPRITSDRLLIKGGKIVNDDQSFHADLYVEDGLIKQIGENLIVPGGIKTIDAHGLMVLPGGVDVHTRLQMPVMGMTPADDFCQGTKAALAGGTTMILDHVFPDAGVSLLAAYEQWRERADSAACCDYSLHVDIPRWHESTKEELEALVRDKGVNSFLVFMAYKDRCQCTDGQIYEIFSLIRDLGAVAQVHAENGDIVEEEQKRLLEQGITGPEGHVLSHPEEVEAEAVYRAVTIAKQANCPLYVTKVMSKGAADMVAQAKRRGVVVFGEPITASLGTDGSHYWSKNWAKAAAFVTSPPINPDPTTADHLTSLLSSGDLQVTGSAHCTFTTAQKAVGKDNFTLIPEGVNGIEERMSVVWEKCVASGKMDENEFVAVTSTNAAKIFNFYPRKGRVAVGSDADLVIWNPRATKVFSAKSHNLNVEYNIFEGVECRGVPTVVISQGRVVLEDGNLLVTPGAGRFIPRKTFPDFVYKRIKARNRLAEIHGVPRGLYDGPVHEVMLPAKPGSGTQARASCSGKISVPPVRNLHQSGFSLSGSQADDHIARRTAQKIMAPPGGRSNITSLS
Ras-related protein Rab-1A, sequence (P62821 whole entry): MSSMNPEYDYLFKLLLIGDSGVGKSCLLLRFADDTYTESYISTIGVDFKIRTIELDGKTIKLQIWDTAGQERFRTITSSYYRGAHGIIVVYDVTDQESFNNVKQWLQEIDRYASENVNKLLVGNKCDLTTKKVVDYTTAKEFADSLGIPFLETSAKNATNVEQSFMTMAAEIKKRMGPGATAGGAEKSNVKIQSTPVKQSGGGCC

Substance | G2385R/WT (ratio of abundance in G2385R versus wild-type bait)
Dihydropyrimidinase-related protein 4 (from UniProt O35098 1-572) (natural protein) | 0.46
F-actin-capping protein subunit alpha-2 (from UniProt P47754 1-286) (natural protein) | 0.5
14-3-3 protein epsilon (from UniProt P62259 1-255) (natural protein) | 0.37
Tubulin alpha-1A chain (from UniProt P68369 1-451) (natural protein) | 0.49
Ras-related protein Rab-1A (from UniProt P62821 1-205) (natural protein) | 0.62
Synapsin-2 (from UniProt Q64332 1-586) (natural protein) | 0.53
Tubulin beta-4B chain (from UniProt P68372 1-445) (natural protein) | 0.49
Tubulin alpha-4A chain (from UniProt P68368 1-448) (natural protein) | 0.53
Actin-related protein 2/3 complex subunit 1 A (from UniProt Q9R0Q6 1-370) (natural protein) | 0.26

Results, then the substance that gave them:

G2385R/WT (ratio of abundance in G2385R versus wild-type bait) | Substance
0.44 | AP-2 complex subunit alpha-1 (from UniProt P17426 1-977) (natural protein)
0.37 | Coronin-1A (from UniProt O89053 1-461) (natural protein)
0.39 | Tubulin beta-4A chain (from UniProt Q9D6F9 1-444) (natural protein)
0.42 | Dihydropyrimidinase-related protein 1 (from UniProt P97427 1-572) (natural protein)
